{"source": "the supplement of paper PMC12636428"}
{"system": "Saccharomyces cerevisiae", "test": "transcriptional activation domain activity (GFP:mCherry ratio, weighted mean of sorted bins, harmonized to initial dataset scale) (arbitrary fluorescence ratio units); higher = stronger transcriptional activation", "details": "beta-estradiol 1 µM; induction time 4 h", "outline": "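Values are activation activity, found as the read-weighted mean of bin median fluorescence, averaged across barcodes and then mapped linearly onto the initial dataset scale. Barcoded protein tiles fused to an estradiol-inducible synthetic transcription factor were integrated at the URA3 locus of GFP-reporter yeast diploids. Cells were induced for 4 hours at 30 °C with 1 uM beta-estradiol in SC, sorted into 8 bins by GFP:mCherry ratio, and barcode-sequenced, with tiles under 50 reads discarded.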"}
{"sequence": "VVLASSPSSQTTSSTSVVLIFGSDDKRVKEVGEGLKAKLDMRGGGKGTRWSGK", "transcriptional activation domain activity": 14200}
{"sequence": "VVLGWILGKECMTLYFDTFQIALLFVSVLLVNYLIQDGKSHWLEGVLLVCSYL", "transcriptional activation domain activity": 37400}
{"sequence": "VVLPCLNLVLAVRKYFVRYLMMPRYSTLQVFGEENAAGYRPMLFWEIEPWYVA", "transcriptional activation domain activity": 41800}
{"sequence": "VVLSVLCSLLNTTLKYNPASWRVPYDHVVFKDSKQILVTYCLQLLLVLILYPI", "transcriptional activation domain activity": 44500}
{"sequence": "VVLWHIVISLRFWFNFVSVVPALRWVYLSIYEIKVDYKNLIEYTLPQLCSLFI", "transcriptional activation domain activity": 54600}
{"sequence": "VVLYMLRFLGLMHIMLFSHIDQRCKDFAKVYLRGRIIRYTCPFFSRSSLHKIV", "transcriptional activation domain activity": 49400}
{"sequence": "VVNLLQSLHFGGLLNHKKRHYFWIIFGAIFFWEWIPQFPFPLLTAFSVICLVD", "transcriptional activation domain activity": 47400}
{"sequence": "VVNVLLSVFNGYDTGKSGIRCNPLPNSFIPLIMTAMLLSMLTFLLVTTIACYV", "transcriptional activation domain activity": 38300}
{"sequence": "VVPCLALVKKKSFFFVFFLLFLFLCTHLTACIAFSPFLFLFLFVFLFVALFSV", "transcriptional activation domain activity": 40400}
{"sequence": "VVPYYCLFVFFPFYSCVLVRLAGNCHSCLIIALFFLILISGRSFFFFFFFFFF", "transcriptional activation domain activity": 14200}
{"sequence": "VVSFFVILGYMLLYRMRSTQLWSNRSTSSFGERPKPPIVAYRSIIIRIGLRKL", "transcriptional activation domain activity": 67300}
{"sequence": "VVTLHEILKCLGHLRSLVLTAKAFGCLQAIRMILEHFLLVWRKTITHCLRYSE", "transcriptional activation domain activity": 60400}
{"sequence": "VVTRWILFIVPMLGIVWIPGILSLTTFPHATVWGVKLIWWSIWLSVVWGGWWV", "transcriptional activation domain activity": 38300}
{"sequence": "VVVILRMWAFCYRGSGHAHEMLHLLHNLICVWTKEFQYIVLQNWLANPQGKPK", "transcriptional activation domain activity": 58500}
{"sequence": "VVVKVALLLRWLVMVYDVLDGHTMLSQLYGLLFNCLDMISLRTHICHLLSLLT", "transcriptional activation domain activity": 27000}
{"sequence": "VVVYCKSIDLLFRVALYLWRSPAVIAWISFAARQARVIVATVVFGLGINRADI", "transcriptional activation domain activity": 69400}
{"sequence": "VWEAVTTGFDGGFVPRTRDADAGTRRTGGSVRAEERKEKLRAWRVSRCWAVLA", "transcriptional activation domain activity": 56500}
{"sequence": "VWEMCLVVGMGSELDVLYRVNNTVFVGCFCLARLTIVLLFAMSMLYLPMFRRD", "transcriptional activation domain activity": 61200}
{"sequence": "VWFKIVWAWLYVFTSTWLLGVFLSYVKWWLLWVPWFLRSRVRCCVFLAILYIV", "transcriptional activation domain activity": 73800}
{"sequence": "VWIVIYISLSYLFSGVLESVILIYSWIRGFPVIQLLFPKCQVYMNGFLVLFVI", "transcriptional activation domain activity": 61200}
{"sequence": "VWVASKVEEDEASDYAAPEKQAKPKRQRGRPKKGGEDKSDVTSTAAAQESAAK", "transcriptional activation domain activity": 24500}
{"sequence": "VWVCGFLVVYLFYTWGVLSFVFFQMLINHLSFINLFFFYILSSFIGGLTLNFF", "transcriptional activation domain activity": 51200}
{"sequence": "VWVKTPWNLYALLLATLSHSLMIDPLLGVLLYYSSITWDPLYRILIFCIFAFW", "transcriptional activation domain activity": 45400}
{"sequence": "VYCELVSFLVLSSKKSDTKLLIQLERVARYISQLLFVESDAITMTSGISVLRP", "transcriptional activation domain activity": 37500}
{"sequence": "VYCQVLLNHKYRAYGGGYRAETIIYSFGRLSDLLYFVPVVVGRMEMRMGLTLK", "transcriptional activation domain activity": 52200}
{"sequence": "VYIFLTFFIATWWPLCLVNLFGWMLLYLFRGVFPEAIMLIFNVLSRVVTIHRI", "transcriptional activation domain activity": 42000}
{"sequence": "VYIGACWGHWAQLNVFLIPGLVVWFIDRGIRFARTALLHYNFLPSGHMGFRAA", "transcriptional activation domain activity": 77700}
{"sequence": "VYILSFYLPSLFPSFFTHSLFFFLHLWSCSTSSQTNMRLPTLAFISLPFVLTF", "transcriptional activation domain activity": 53600}
{"sequence": "VYILVSYFLLGPRCLILIASTFLLSYHSSWSIVTRRVLWRFKVVRLIFFYLTG", "transcriptional activation domain activity": 61700}
{"sequence": "VYIYAKTISIVLLTDIYIGKYTYILISLKLLARKKFYNILTNPIFCAHIRLVI", "transcriptional activation domain activity": 55300}
{"sequence": "VYKRKILVLIYKIAHLTDLYLEVANGGPKLRLHLSALSFHTCAWKSKGLSIPE", "transcriptional activation domain activity": 35900}
{"sequence": "VYLCNVNLSIFKSVLSWVGVCTALYGCITIMPIFRHDSPYHTPLSFLAWHIVI", "transcriptional activation domain activity": 63600}
{"sequence": "VYMLTMESKKLLLRHVIDKLPGFLPTDLSGVTFLADWIHMQTGRIKKGTFNIV", "transcriptional activation domain activity": 59700}
{"sequence": "VYPEKVIFAPFEIFVVLVSFFNLVLFLFCFPFTLYPPKRWLRIVVLLFLFFFC", "transcriptional activation domain activity": 50400}
